The text below walks through data of the emibetuzumab library of Makowski et al. (2022).

B1: VH:VL chains; a variant is named by its letters at X, in order (parent)
chain 1: QVQLVQSGAEVKKPGASVKVSCKASGYTFTDYXMHWVRQAPGQGLEWMGXVNPNXXXTTYNQKFEGRVTMTTDTSTSTAYMELRSLRSDDTAVYYCARXNXLDXWGQGTTVTVSS
chain 2: DIQMTQSPSSLSASVGDRVTITCSVSSSVSSIYLHWYQQKPGKAPKLLIYSTSNLASGVPSRFSGSGSGTDFTLTISSLQPEDFATYYCQVYSGYPLTFGGGTKVEIK

The data set covers variants of B1. Nature of the data set: yeast display scFab, FACS + sequencing. The procedure, abridged: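 The non-specific binding call was based on sorted and sequenced yeast displaying a heavy-chain CDR mutant scFab library. Labelling used anti-Myc with biotinylated ovalbumin (260 μg/mL in PBSB, 3 h, room temperature) or soluble membrane proteins (130 μg/mL, 20 min on ice), and FACS collected the top 25% and bottom 10% of binders in two replicates. Positive meant present in ≥3 of 4 pooled positive samples and in no negatives, and negative meant the converse.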
Turning to YRGRGVVY, the non-specific binding call is recorded as “binds”. Then YETTDSWV, with “no binding”; and YTTGSASF, with “no binding”; and YEGRNVGV, with “binds”. Then YEGGGFSV, with “no binding”; and DAGGAAAV, with “no binding”; and VKGTGFLD, with “binds”. Then VTGTGSVD, with “no binding”; and YTRKSSVD, with “binds”; and AARADDSV, with “no binding”.

Regarding VKGRGVGA, the non-specific binding call is reported as “binds”.

Turning to YKRGSFGA, the non-specific binding call was “binds”. Consider YRAGGASA, for which the non-specific binding call is “binds”. Then YRARGYVY, with “binds”. To YRKGAASD belongs “binds”; to VARKGVGV, “binds”; to YRGKDAGA, “binds”.

With VGGGGAAD, the non-specific binding call is given as “no binding”. To VKEGGDVV belongs “no binding”; to FRGADFGD, “binds”. Then YTGTSDLD, with “no binding”; and DEKGGSSA, with “no binding”. To FKGEGDSA belongs “no binding”; to FRERGAVV, “binds”; to SEEGTAGA, “no binding”. For FAGGGDVY, the non-specific binding call was “no binding”. To FRGRGDGY belongs “binds”; to YKGRSAVY, “binds”. Regarding YKGRGVGD, the non-specific binding call is reported as “binds”. Take YRGGAAWD: the non-specific binding call is “binds”.

YKKESDSY: the non-specific binding call was “no binding”. To DAETAAAA belongs “no binding”; to DATGGDVY, “no binding”. Then VRGRGVSY, with “binds”; and YRGGGDSV, with “no binding”.

Regarding YRRGSYVY, the non-specific binding call was “binds”. To DTGGGDLA belongs “no binding”; to DRREDSSA, “no binding”; to YRARGAWS, “binds”. Then VEGTSAGD, with “no binding”; and YKGKGAWY, with “binds”. To ARAASAGA belongs “binds”; to AKGTASGD, “binds”; to SEKKDYSA, “no binding”. With SAGGGAWV, the non-specific binding call is “no binding”. To SGREGDWD belongs “binds”. To VKGESAGV belongs “no binding”; to FRGRSSLA, “binds”. Then YKERGDVF, with “binds”; and YGGKNSVD, with “no binding”. In the case of FRGEGFSV, the non-specific binding call is given as “binds”. Then DATGGASD, with “no binding”; and VTTGSASF, with “no binding”. To SAAGGAAD chain 1 L45S belongs “no binding”; to VTTGGAVD, “no binding”. Then DTTKSDGV, with “no binding”. SRGGSALA: the non-specific binding call is given as “no binding”. To SKTKSDAV belongs “no binding”. Then SKGRSDVS, with “no binding”. To YRRRGYWA belongs “binds”; to YRERGALS, “binds”. For the variant YKTKSDWV, the non-specific binding call is recorded as “no binding”. Then FRTRGVGA, with “binds”.

For FKTAGSAV chain 1 R67H, the non-specific binding call is listed as “binds”. To VKRGSSLF belongs “binds”; to SEGADAGD, “no binding”; to VKGRSDAS, “no binding”.

Take YRGKDSGA: the non-specific binding call was “binds”. To DRGRDDVV belongs “no binding”; to YRKGGAGS, “binds”. Then VKAGDAVY, with “no binding”; and FRRGDAVA, with “binds”. Then YRGGSAGA, with “binds”; and SGGRTYGV, with “binds”.

Take YARADSGD: the non-specific binding call is “no binding”. Turning to FRRGGAWV, the non-specific binding call is listed as “binds”. Then DAEATDGA, with “no binding”; and YRAGASAD, with “binds”; and FRRRGSSD, with “binds”. To VEGAASWF belongs “no binding”; to AKGRGDGA, “no binding”; to FAGRSDWV chain 1 R67H, “no binding”.

Take DRAGDSLV: the non-specific binding call is “no binding”. Then VKGAGSVV, with “no binding”; and YREETSGA, with “binds”. To YRGRGYAY belongs “binds”; to FRGKGAVD, “binds”. In the case of AKTRDDVA, the non-specific binding call was “no binding”. With VEGGGDVY, the non-specific binding call is “no binding”. Then YKGKSAWD, with “binds”; and YRAETDVA, with “no binding”; and DATGGSGD, with “no binding”. Then SEGRGSGV, with “no binding”; and YTETGDSV, with “no binding”. To AERRGSWS belongs “no binding”; to YARADAAA, “no binding”; to YRAGGDAD, “binds”. With VKGRASSV, the non-specific binding call is “no binding”.

For the variant YAKRDAGD, the non-specific binding call is reported as “no binding”. To VKRGSSVD belongs “binds”; to ATGGDDGF, “no binding”; to ARGRGAAS, “binds”.

With VGETSYVD, the non-specific binding call is reported as “binds”.

For the variant VEEEGDGA, the non-specific binding call is on record as “no binding”.

For VEEEGALD, the non-specific binding call is “no binding”. Then YERRGSWS, with “no binding”. Then VTETGSLV, with “no binding”; and VEEEGSVD, with “no binding”; and FKRRDSVY, with “binds”.

With YRRGSSLV, the non-specific binding call is reported as “binds”. Then YKGKGAGS, with “binds”; and YGGRGYAV, with “binds”; and SAGRGSAA, with “binds”. For the variant VARAADAD, the non-specific binding call is “no binding”. To SEARSSWV belongs “no binding”; to YKAGGALY, “binds”. Turning to YRAKGSAA, the non-specific binding call is on record as “binds”.
